{"source": "paper PMC3798119", "origin": "cited, not measured here", "target": "basigin (CD147) (Homo sapiens) (UniProt P35613)", "sequence (P35613 22-325)": "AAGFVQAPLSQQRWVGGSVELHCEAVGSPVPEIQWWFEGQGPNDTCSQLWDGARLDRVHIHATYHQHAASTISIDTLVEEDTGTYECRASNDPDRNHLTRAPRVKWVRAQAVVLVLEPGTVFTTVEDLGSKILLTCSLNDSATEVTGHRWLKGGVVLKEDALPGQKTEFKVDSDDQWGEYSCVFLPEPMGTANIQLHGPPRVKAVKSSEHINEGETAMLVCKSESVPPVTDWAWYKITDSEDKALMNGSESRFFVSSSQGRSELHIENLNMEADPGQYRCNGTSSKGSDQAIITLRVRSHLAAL"}
{"substance": "RH5 (from UniProt Q8IFM5)", "values": [{"measurement": "Kd", "result": 1100, "unit": "nM"}]}
